# Measurements: PMC11957191
# Tests used:
# [1] = target: myristoylated human Arf1 (myrArf1), GTP-bound form at a membrane surface (human) (UniProt P84077); assay: not stated; binding test of the K391A mutant shown in Fig. SI5; method not given
# [2] = target: myristoylated human Arf1 (myrArf1), GTP-bound form at a membrane surface (human) (UniProt P84077)
# [3] = target: myrArf1 with Glu54 mutated to Ala (human) (UniProt P84077)
# [4] = target: myristoylated human Arf1 (myrArf1), GTP-bound form at a membrane surface (human) (UniProt P84077); remark: listed apart in the source
# Chain of myristoylated human Arf1 (myrArf1), GTP-bound form at a membrane surface (human) (P84077 whole entry): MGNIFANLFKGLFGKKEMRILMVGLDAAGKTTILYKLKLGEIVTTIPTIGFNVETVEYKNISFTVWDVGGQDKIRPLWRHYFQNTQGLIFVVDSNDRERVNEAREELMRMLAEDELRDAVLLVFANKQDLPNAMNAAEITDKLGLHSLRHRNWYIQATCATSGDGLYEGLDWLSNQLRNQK
# Chain of ASAP1 PZA with Lys391 mutated to Ala (Q9QWY8 other isoform, or with tags, fused parts or gaps, change not shown): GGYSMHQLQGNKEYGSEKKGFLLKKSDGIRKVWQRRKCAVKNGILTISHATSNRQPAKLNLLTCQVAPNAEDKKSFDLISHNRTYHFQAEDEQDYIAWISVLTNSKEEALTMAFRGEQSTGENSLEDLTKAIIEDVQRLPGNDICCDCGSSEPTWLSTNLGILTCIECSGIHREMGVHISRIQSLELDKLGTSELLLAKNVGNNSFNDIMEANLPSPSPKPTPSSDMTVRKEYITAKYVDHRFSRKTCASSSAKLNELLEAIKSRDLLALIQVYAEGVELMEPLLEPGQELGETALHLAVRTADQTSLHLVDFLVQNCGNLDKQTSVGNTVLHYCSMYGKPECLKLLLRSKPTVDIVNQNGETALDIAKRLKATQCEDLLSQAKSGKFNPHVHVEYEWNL
# Chain of wt PZA, [325–724]ASAP1 (PH domain, Arf GAP zinc-binding domain and ankyrin repeats) (Q9QWY8 325-724): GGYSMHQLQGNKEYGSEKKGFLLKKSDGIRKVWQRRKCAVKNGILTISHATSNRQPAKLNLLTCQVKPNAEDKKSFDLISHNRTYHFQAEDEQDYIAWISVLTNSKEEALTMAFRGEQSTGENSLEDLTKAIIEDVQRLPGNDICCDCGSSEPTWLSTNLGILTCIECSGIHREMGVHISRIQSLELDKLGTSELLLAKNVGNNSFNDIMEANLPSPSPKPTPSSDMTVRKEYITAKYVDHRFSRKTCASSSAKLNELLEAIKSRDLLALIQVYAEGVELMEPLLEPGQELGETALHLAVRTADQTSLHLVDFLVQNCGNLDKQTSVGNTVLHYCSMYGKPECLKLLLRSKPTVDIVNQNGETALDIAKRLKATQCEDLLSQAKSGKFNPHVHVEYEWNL
# Chain of ASAP1 PZA with Phe438 mutated to Ala (Q9QWY8 other isoform, or with tags, fused parts or gaps, change not shown): as the sequence (Q9QWY8 325-724) above, with F114A counted along it
# Chain of ΔN14PZA, ASAP1 PZA without residues 325–338 (Q9QWY8 339-724, stated change not applied): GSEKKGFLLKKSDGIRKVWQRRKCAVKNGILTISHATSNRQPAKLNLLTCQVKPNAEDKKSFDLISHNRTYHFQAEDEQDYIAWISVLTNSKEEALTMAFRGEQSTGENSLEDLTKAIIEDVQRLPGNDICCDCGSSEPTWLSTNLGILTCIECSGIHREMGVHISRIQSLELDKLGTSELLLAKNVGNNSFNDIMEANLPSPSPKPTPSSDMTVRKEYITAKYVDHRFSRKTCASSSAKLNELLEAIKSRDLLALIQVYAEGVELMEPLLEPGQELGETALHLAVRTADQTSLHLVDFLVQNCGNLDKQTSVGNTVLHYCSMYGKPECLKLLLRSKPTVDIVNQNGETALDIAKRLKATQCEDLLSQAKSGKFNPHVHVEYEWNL
# Chain of myrArf1 with Glu54 mutated to Ala (human) (P84077 other isoform, or with tags, fused parts or gaps, change not shown): as the sequence (P84077 whole entry) above, with E54A counted along it
# Chain of ASAP1 PZA with His405 mutated to Glu (Q9QWY8 other isoform, or with tags, fused parts or gaps, change not shown): as the sequence (Q9QWY8 325-724) above, with H81E counted along it
Substance,"ArfGAP activity (C50 of PZA for 50% GTP hydrolysis in 3 min), fold reduction against wild type [2]",other results
ASAP1 PH domain with Lys391 mutated to Ala (from UniProt Q9QWY8 325-451) (domain or fragment),–,fold reduction of binding against wild type [1]: 2 fold
ASAP1 PZA with His405 mutated to Glu (from UniProt Q9QWY8 325-724) (domain or fragment),5 fold,–
ASAP1 PZA with Lys391 mutated to Ala (from UniProt Q9QWY8 325-724) (domain or fragment),100 fold,–
ASAP1 PZA with Phe438 mutated to Ala (from UniProt Q9QWY8 325-724) (domain or fragment),15 fold,–
"wt PZA, [325–724]ASAP1 (PH domain, Arf GAP zinc-binding domain and ankyrin repeats) (from UniProt Q9QWY8 325-724) (domain or fragment)",–,"ArfGAP activity (C50 of PZA for 50% GTP hydrolysis in 3 min), fold reduction against wild type [3]: 70 fold"
"ΔN14PZA, ASAP1 PZA without residues 325–338 (from UniProt Q9QWY8 339-724) (domain or fragment)",–,GAP activity on myrArf1·GTP relative to wt PZA (fold of wt PZA) [4]: < 0.01
